Measured values published in PMC6555819, “Comprehensive study of nuclear receptor DNA binding provides a revised framework for understanding receptor specificity”.

Molecular target: PPARa:RXRa (Homo sapiens, UniProt Q07869;P19793 full;full)
Assay: no ligand; PBM; 270 nM : 90 nM RXRa; PBS pH 7.4, 2% milk, 0.02% Triton X-100, 1 mM DTT, BSA, 0.4 mg/ml salmon testes DNA
Details: tags: GST kept;His cleaved; copies: 1;1; label: surface-attached array probe
How it was run: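 Custom Agilent 4×180K protein-binding microarrays carried double-stranded probes, each with a 34-nt variable region. These regions held direct-repeat seeds, single-nucleotide variants, half-site ablations and random human genomic background sequences. Ligand-free nuclear receptor dimers were incubated on the arrays for 1 h, antibodies against each partner (one per run) detected binding, and scanned fluorescence was regression-normalized. Binding z-scores take the random background probes as reference.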

Sequence of PPARa:RXRa (Q07869 whole entry, chain 1 of 2): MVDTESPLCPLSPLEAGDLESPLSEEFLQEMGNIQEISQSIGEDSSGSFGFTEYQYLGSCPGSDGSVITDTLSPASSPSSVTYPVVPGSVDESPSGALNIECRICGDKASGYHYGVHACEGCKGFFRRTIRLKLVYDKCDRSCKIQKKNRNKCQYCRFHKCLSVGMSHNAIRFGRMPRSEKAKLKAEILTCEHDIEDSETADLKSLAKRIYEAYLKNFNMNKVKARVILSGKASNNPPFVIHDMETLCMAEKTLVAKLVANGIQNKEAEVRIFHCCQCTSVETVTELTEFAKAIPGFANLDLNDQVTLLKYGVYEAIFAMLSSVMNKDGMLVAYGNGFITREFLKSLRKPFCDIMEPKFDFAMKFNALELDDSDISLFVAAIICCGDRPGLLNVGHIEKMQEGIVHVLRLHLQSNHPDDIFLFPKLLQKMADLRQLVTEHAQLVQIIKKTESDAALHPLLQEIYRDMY
Sequence of PPARa:RXRa (P19793 whole entry, chain 2 of 2): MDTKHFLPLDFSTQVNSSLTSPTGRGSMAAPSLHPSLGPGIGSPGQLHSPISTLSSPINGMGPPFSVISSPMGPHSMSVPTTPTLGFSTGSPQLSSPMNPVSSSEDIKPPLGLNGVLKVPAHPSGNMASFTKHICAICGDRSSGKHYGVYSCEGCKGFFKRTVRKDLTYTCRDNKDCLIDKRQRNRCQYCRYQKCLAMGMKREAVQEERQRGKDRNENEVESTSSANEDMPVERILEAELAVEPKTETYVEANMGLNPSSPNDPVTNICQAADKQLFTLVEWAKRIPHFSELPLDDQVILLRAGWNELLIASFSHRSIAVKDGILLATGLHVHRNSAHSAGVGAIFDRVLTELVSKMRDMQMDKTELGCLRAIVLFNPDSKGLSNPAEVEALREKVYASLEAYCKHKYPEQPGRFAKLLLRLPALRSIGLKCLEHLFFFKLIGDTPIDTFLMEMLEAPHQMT

Binder	binding signal
NRC3_wobSeed82_DR3_C13G_o1 (dsDNA) DNA 1: GCATCGAAAGGTGGACGAGGTGAGTATACACCGTTTGCGATTGACAGCGTAGAATGAAGG DNA 2: CCTTCATTCTACGCTGTCAATCGCAAACGGTGTATACTCACCTCGTCCACCTTTCGATGC	0.49 PBM z-score against 500 random probes
NRC3_wobSeed75_DR3_G24A_o1 (dsDNA) DNA 1: GCTCTCGGAGGACACGAAGGTCAAAGCTTTCCAGAGGCGATTGACAGCGTAGAATGAAGG DNA 2: CCTTCATTCTACGCTGTCAATCGCCTCTGGAAAGCTTTGACCTTCGTGTCCTCCGAGAGC	3.46 PBM z-score against 500 random probes
NRC3_wobSeed42_DR1_A14T_o1 (dsDNA) DNA 1: GCTATACAGGGTCTAAGGCCAGAGTACGAATGTCGAGCGATTGACAGCGTAGAATGAAGG DNA 2: CCTTCATTCTACGCTGTCAATCGCTCGACATTCGTACTCTGGCCTTAGACCCTGTATAGC	0.39 PBM z-score against 500 random probes
NRC3_wobSeed7_DR0_T6G_o1 (dsDNA) DNA 1: GCTCAGATAGGTAAAGGTGAAAGTCGAACGATATGAGCGATTGACAGCGTAGAATGAAGG DNA 2: CCTTCATTCTACGCTGTCAATCGCTCATATCGTTCGACTTTCACCTTTACCTATCTGAGC	3.2 PBM z-score against 500 random probes
NRC3_wobSeed72_DR2_A22G_o1 (dsDNA) DNA 1: GCTCGAGTAGGTTACGGGGGCGTTCAGGGATGAAGAGCGATTGACAGCGTAGAATGAAGG DNA 2: CCTTCATTCTACGCTGTCAATCGCTCTTCATCCCTGAACGCCCCCGTAACCTACTCGAGC	3.48 PBM z-score against 500 random probes
NRC3_wobSeed26_DR1_A21T_o1 (dsDNA) DNA 1: GCTCTAGTTGGTCAAAGGTCTCACACTCGAAATGCGGCGATTGACAGCGTAGAATGAAGG DNA 2: CCTTCATTCTACGCTGTCAATCGCCGCATTTCGAGTGTGAGACCTTTGACCAACTAGAGC	3.41 PBM z-score against 500 random probes
NRC3_wobSeed26_DR1_T19C_o1 (dsDNA) DNA 1: GCTCTAGTTGGTCAAAGGCCACACACTCGAAATGCGGCGATTGACAGCGTAGAATGAAGG DNA 2: CCTTCATTCTACGCTGTCAATCGCCGCATTTCGAGTGTGTGGCCTTTGACCAACTAGAGC	3.15 PBM z-score against 500 random probes
NRC3_wobSeed43_DR1_G26C_o1 (dsDNA) DNA 1: GCCCAGACAGGTGAAAGGTAACTCACTCTGGTACGCGCGATTGACAGCGTAGAATGAAGG DNA 2: CCTTCATTCTACGCTGTCAATCGCGCGTACCAGAGTGAGTTACCTTTCACCTGTCTGGGC	3.54 PBM z-score against 500 random probes
NRC3_wobSeed116_DR4_A6T_o1 (dsDNA) DNA 1: GCAGATTGAGGTTACCAAAGATCAGGGAAACGCTTGGCGATTGACAGCGTAGAATGAAGG DNA 2: CCTTCATTCTACGCTGTCAATCGCCAAGCGTTTCCCTGATCTTTGGTAACCTCAATCTGC	3.29 PBM z-score against 500 random probes
NRC3_wobSeed34_DR1_A9G_o1 (dsDNA) DNA 1: GCATCGAAGGGTCGAAGGTGAGTATACCCACCCGAAGCGATTGACAGCGTAGAATGAAGG DNA 2: CCTTCATTCTACGCTGTCAATCGCTTCGGGTGGGTATACTCACCTTCGACCCTTCGATGC	3.17 PBM z-score against 500 random probes
NRC3_wobSeed4_DR0_G16T_o1 (dsDNA) DNA 1: GCCCTACTGGGCCAATGTCATTGATCAGTCAAAGCAGCGATTGACAGCGTAGAATGAAGG DNA 2: CCTTCATTCTACGCTGTCAATCGCTGCTTTGACTGATCAATGACATTGGCCCAGTAGGGC	0.47 PBM z-score against 500 random probes
NRC3_wobSeed98_DR4_A28T_o1 (dsDNA) DNA 1: GCACTAGTTGGTCAGCTGAGGTCACACTCAATTCGGGCGATTGACAGCGTAGAATGAAGG DNA 2: CCTTCATTCTACGCTGTCAATCGCCCGAATTGAGTGTGACCTCAGCTGACCAACTAGTGC	3.53 PBM z-score against 500 random probes
NRC3_wobSeed2_DR0_A20T_o1 (dsDNA) DNA 1: GCCCTAGTTGGTCAAGGTCTCACACGCTATAGGTACGCGATTGACAGCGTAGAATGAAGG DNA 2: CCTTCATTCTACGCTGTCAATCGCGTACCTATAGCGTGTGAGACCTTGACCAACTAGGGC	0.37 PBM z-score against 500 random probes
NRC3_wobSeed64_DR2_G18T_o1 (dsDNA) DNA 1: GCTAGCCTAGGTCATTGTGCCAGTATAGTACGCATCGCGATTGACAGCGTAGAATGAAGG DNA 2: CCTTCATTCTACGCTGTCAATCGCGATGCGTACTATACTGGCACAATGACCTAGGCTAGC	3.37 PBM z-score against 500 random probes
NRC3_wobSeed140_DR5_T15C_o1 (dsDNA) DNA 1: GCAGAATGAGGTTACACGTAGATCAGGGAAGAAAGTGCGATTGACAGCGTAGAATGAAGG DNA 2: CCTTCATTCTACGCTGTCAATCGCACTTTCTTCCCTGATCTACGTGTAACCTCATTCTGC	3.5 PBM z-score against 500 random probes
NRC3_wobSeed110_DR4_T27G_o1 (dsDNA) DNA 1: GCTCTGCTAGGTCAACGATGGTCAGCGAATCTGCTAGCGATTGACAGCGTAGAATGAAGG DNA 2: CCTTCATTCTACGCTGTCAATCGCTAGCAGATTCGCTGACCATCGTTGACCTAGCAGAGC	3.11 PBM z-score against 500 random probes
NRC3_wobSeed99_DR4_A24T_o1 (dsDNA) DNA 1: GCTCTCGGAGGACACGAAAGGTCTGAGCTCGACATCGCGATTGACAGCGTAGAATGAAGG DNA 2: CCTTCATTCTACGCTGTCAATCGCGATGTCGAGCTCAGACCTTTCGTGTCCTCCGAGAGC	0.43 PBM z-score against 500 random probes

Binder	binding signal
NRC3_wobSeed99_DR4_G20A_o1 (dsDNA) DNA 1: GCTCTCGGAGGACACGAAAAGTCAGAGCTCGACATCGCGATTGACAGCGTAGAATGAAGG DNA 2: CCTTCATTCTACGCTGTCAATCGCGATGTCGAGCTCTGACTTTTCGTGTCCTCCGAGAGC	0.36 PBM z-score against 500 random probes
NRC3_wobSeed38_DR1_o1 (dsDNA) DNA 1: GCCCTGCTAGGTCAATGGTCAGCTAAAGCAGCTCGCGCGATTGACAGCGTAGAATGAAGG DNA 2: CCTTCATTCTACGCTGTCAATCGCGCGAGCTGCTTTAGCTGACCATTGACCTAGCAGGGC	3.19 PBM z-score against 500 random probes
NRC3_wobSeed48_DR1_G5T_o1 (dsDNA) DNA 1: GCCCTAGTAGGTTATGGGGCATTCAGGCAACGGTGAGCGATTGACAGCGTAGAATGAAGG DNA 2: CCTTCATTCTACGCTGTCAATCGCTCACCGTTGCCTGAATGCCCCATAACCTACTAGGGC	3.05 PBM z-score against 500 random probes
NRC3_wobSeed47_DR1_A5T_o1 (dsDNA) DNA 1: GCGGTACGAGGGCAAAGTTGATAGCATCTGTCGACGGCGATTGACAGCGTAGAATGAAGG DNA 2: CCTTCATTCTACGCTGTCAATCGCCGTCGACAGATGCTATCAACTTTGCCCTCGTACCGC	3.22 PBM z-score against 500 random probes
NRC3_wobSeed20_DR0_C19T_o1 (dsDNA) DNA 1: GCAGAATGAGGTTAAGATTAGGGAAACAGAATACATGCGATTGACAGCGTAGAATGAAGG DNA 2: CCTTCATTCTACGCTGTCAATCGCATGTATTCTGTTTCCCTAATCTTAACCTCATTCTGC	3.39 PBM z-score against 500 random probes
NRC3_wobSeed6_DR0_G15C_o1 (dsDNA) DNA 1: GCCCTAGCAGGCCACGGTCACTCAAGCATTTCGCTTGCGATTGACAGCGTAGAATGAAGG DNA 2: CCTTCATTCTACGCTGTCAATCGCAAGCGAAATGCTTGAGTGACCGTGGCCTGCTAGGGC	0.43 PBM z-score against 500 random probes
NRC3_wobSeed14_DR0_C22G_o1 (dsDNA) DNA 1: GCCCTGCTAGGTCATGGTCAGGTAATCTACAGTATGGCGATTGACAGCGTAGAATGAAGG DNA 2: CCTTCATTCTACGCTGTCAATCGCCATACTGTAGATTACCTGACCATGACCTAGCAGGGC	3.51 PBM z-score against 500 random probes
NRC3_wobSeed14_DR0_T5C_o1 (dsDNA) DNA 1: GCCCCGCTAGGTCATGGTCAGCTAATCTACAGTATGGCGATTGACAGCGTAGAATGAAGG DNA 2: CCTTCATTCTACGCTGTCAATCGCCATACTGTAGATTAGCTGACCATGACCTAGCGGGGC	3.35 PBM z-score against 500 random probes
NRC3_wobSeed54_DR2_G15T_o1 (dsDNA) DNA 1: GCTCTAGCAGGCCATAGGGTCACTCAAGAGGTACGGGCGATTGACAGCGTAGAATGAAGG DNA 2: CCTTCATTCTACGCTGTCAATCGCCCGTACCTCTTGAGTGACCCTATGGCCTGCTAGAGC	3.24 PBM z-score against 500 random probes
NRC3_wobSeed141_DR5_C26T_o1 (dsDNA) DNA 1: GCAGTCAAAGTTCAGGACGAGGTAATGTAAAGCACGGCGATTGACAGCGTAGAATGAAGG DNA 2: CCTTCATTCTACGCTGTCAATCGCCGTGCTTTACATTACCTCGTCCTGAACTTTGACTGC	3.3 PBM z-score against 500 random probes
NRC3_wobSeed141_DR5_T5A_o1 (dsDNA) DNA 1: GCAGACAAAGTTCAGGACGAGGTAACGTAAAGCACGGCGATTGACAGCGTAGAATGAAGG DNA 2: CCTTCATTCTACGCTGTCAATCGCCGTGCTTTACGTTACCTCGTCCTGAACTTTGTCTGC	3 PBM z-score against 500 random probes
NRC3_wobSeed137_DR5_A25T_o1 (dsDNA) DNA 1: GCATATGTAGGTTACATCCGGGTCTTTCAGGCTATGGCGATTGACAGCGTAGAATGAAGG DNA 2: CCTTCATTCTACGCTGTCAATCGCCATAGCCTGAAAGACCCGGATGTAACCTACATATGC	3.32 PBM z-score against 500 random probes
NRC3_wobSeed137_DR5_A14C_o1 (dsDNA) DNA 1: GCATATGTAGGTTCCATCCGGGTCATTCAGGCTATGGCGATTGACAGCGTAGAATGAAGG DNA 2: CCTTCATTCTACGCTGTCAATCGCCATAGCCTGAATGACCCGGATGGAACCTACATATGC	3.09 PBM z-score against 500 random probes
NRC3_wobSeed50_DR2_A17T_o1 (dsDNA) DNA 1: GCCCTAGTTGGTCAGGTGGTCACACACCGGATATGAGCGATTGACAGCGTAGAATGAAGG DNA 2: CCTTCATTCTACGCTGTCAATCGCTCATATCCGGTGTGTGACCACCTGACCAACTAGGGC	0.4 PBM z-score against 500 random probes
NRC3_wobSeed102_DR4_A9C_o1 (dsDNA) DNA 1: GCCCTAGCCGGCCAATCTGGGTCACTCAAGGCTTGAGCGATTGACAGCGTAGAATGAAGG DNA 2: CCTTCATTCTACGCTGTCAATCGCTCAAGCCTTGAGTGACCCAGATTGGCCGGCTAGGGC	3.14 PBM z-score against 500 random probes
NRC3_wobSeed102_DR4_G11A_o1 (dsDNA) DNA 1: GCCCTAGCAGACCAATCTGGGTCACTCAAGGCTTGAGCGATTGACAGCGTAGAATGAAGG DNA 2: CCTTCATTCTACGCTGTCAATCGCTCAAGCCTTGAGTGACCCAGATTGGTCTGCTAGGGC	3.03 PBM z-score against 500 random probes
